We go through one molecule from patent publication US20220152103A1 (LEUCID BIO, published 2022).

In this assay the target is T1, human HER2 on tumor cells (MDA-MB-468-HER2++ cells transduced with human HER2; T47D cells) (human, UniProt P04626 23-1255).
T1 construct: whole, on cells; also called ErbB2
Briefly: flow cytometry sorting of MDA-MB-468-HER2++ cells.

B1: ICR12 rat anti-human HER2 antibody (antibody, V domains shown)
VH: EVQLQESGPGLVKPSQSLSLTCSVTGYSITTDYWGWIRKFPGNKMEWMGYISYSGSTGYNPSLKSRISITRDTSKSQFFLQLNSVTTEDTATYYCARYSSLDYWGRGVMVAVSS
VL: DVVMTQTPPSLSVAIGQSVSISCKSSQSLVYSDGKTYLHWLLQSPGRSPKRLIYQVSNLGSGVPDRFSGTGSQKDFTLKISRVEAEDLGVYYCAQTTHFPLTFGSGTKLEIK
notes: VH and VL stand within it
Consider B1, for which the binding result is listed as “binds”.
